Results as given in US20110257036A1.

Target: BRCA1 protein (mouse) (mouse) (UniProt P48754)
Test: cell-based or functional assay

UniProt P48754, sequence (P48754 whole entry): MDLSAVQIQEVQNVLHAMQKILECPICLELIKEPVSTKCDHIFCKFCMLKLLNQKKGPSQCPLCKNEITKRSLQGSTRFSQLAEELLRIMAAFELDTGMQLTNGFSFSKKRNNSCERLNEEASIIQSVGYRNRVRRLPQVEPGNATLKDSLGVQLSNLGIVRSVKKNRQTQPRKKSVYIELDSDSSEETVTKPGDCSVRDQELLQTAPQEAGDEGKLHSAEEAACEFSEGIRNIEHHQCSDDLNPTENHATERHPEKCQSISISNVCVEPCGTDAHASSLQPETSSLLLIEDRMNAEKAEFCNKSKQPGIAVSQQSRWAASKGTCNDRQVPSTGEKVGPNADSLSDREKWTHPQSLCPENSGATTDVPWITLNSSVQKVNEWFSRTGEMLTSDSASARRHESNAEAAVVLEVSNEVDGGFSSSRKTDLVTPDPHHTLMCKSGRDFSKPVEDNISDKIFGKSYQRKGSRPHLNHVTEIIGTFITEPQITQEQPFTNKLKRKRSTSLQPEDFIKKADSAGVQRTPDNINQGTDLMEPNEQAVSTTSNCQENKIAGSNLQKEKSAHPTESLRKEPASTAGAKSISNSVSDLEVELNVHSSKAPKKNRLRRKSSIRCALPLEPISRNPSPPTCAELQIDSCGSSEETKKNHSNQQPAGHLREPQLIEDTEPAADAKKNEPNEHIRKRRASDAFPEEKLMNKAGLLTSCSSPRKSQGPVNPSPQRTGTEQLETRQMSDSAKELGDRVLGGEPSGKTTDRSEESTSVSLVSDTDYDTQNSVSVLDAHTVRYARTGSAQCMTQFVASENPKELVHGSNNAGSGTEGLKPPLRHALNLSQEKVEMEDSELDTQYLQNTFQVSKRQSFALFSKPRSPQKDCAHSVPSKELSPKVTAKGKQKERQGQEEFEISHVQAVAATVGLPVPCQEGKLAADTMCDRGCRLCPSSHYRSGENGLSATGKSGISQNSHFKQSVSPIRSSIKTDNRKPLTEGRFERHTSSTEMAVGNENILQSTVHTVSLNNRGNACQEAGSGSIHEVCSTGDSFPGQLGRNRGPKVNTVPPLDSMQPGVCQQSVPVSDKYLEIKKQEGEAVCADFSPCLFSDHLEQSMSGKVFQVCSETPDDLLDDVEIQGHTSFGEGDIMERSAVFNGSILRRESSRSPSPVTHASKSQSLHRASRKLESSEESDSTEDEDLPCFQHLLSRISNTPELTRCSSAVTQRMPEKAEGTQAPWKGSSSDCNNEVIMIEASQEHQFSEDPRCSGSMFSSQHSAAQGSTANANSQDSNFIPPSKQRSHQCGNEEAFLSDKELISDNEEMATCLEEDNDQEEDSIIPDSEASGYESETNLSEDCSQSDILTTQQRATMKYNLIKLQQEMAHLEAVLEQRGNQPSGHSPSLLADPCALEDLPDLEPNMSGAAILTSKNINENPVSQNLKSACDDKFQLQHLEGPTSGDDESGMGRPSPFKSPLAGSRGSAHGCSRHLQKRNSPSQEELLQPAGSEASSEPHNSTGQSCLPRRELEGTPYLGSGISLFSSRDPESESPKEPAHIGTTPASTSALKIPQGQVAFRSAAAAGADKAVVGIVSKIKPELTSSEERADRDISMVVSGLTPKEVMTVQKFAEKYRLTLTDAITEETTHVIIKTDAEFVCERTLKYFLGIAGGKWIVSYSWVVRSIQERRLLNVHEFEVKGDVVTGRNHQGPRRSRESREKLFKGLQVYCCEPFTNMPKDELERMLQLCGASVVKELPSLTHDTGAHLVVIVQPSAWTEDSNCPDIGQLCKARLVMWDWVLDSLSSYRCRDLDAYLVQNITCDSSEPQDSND

FANCD2 protein (mouse) (from UniProt Q80V62 1-1450)
co-localization of anti-FANCD2 foci with anti-BRCA1 staining (20 pachytene nuclei): 65%
